Measured values: patent US7550425B2, “Diuretic peptide conjugates” (Zealand Pharma A/S, priority 2000, dated 2009)
Read-outs that look alike come from different tables or passages of the source. Peptide text beside a SMILES is read from it.

What was measured:
hORL1 receptor = hORL1 receptor (Homo sapiens, UniProt P41146); experiment: Binding to human ORL1 receptor expressed in CHO cells; set-up: expressed in transfected cells; host or cells: CHO
[1] = tested on: conscious Sprague Dawley rats; format: in vivo, rat
Description: In the conscious rat model, the animal is chronically instrumented with catheters in the urinary bladder, the femoral artery, and the femoral vein. The animal receives a continuous i.v. infusion with isotonic saline, 50 μl/min. Urine is collected in vials in consequtive urine collection periods of 10 min each. After two control periods, the test compound is administered and fractionated urine collections (10 min periods) are continued for at least two hours. Urinary concentrations of sodium and potassium are determined by flame photometry (Instrumentation Laboratory 943) using caesium as internal standard.
The diuretic effect of the peptide conjugates of the invention has been tested in conscious rats, where Compound 1 elicits a powerful and sustained diuretic response. Cardiovascular and renal responses produced by i.v. infusion of nociceptin (Phoenix Pharmaceuticals) and Compound 1 have been studied in conscious Sprague Dawley rats. The results are shown in FIGS. 2 to 8 wherein HR is heart rate, MAP is mean arterial pressure, V is urine flow rate, UNaV is urinary excretion rate of sodium, RSNA is renal sympathetic nerve activity expressed as % of the control level, Cosm is the osmolar clearance, and CH2O is free water clearance.
Furthermore, the effects of i.v. bolus administration of nociceptin (30 and 100 nmol/kg, Phoenix Pharmaceuticals) and nociceptin-NH2 (30 nmol/kg) on heart rate, arterial pressure and RSNA were studied in groups of 6 conscious Sprague-Dawley rats.
[…] After stabilization of urine flow rate and urinary sodium excretion, urine was collected during a 20-min control period. After this, the i.v. bolus injection was given or the i.v. infusate was switched to a solution of isotonic saline containing Compound 1 (i.v. infusion experiments). From the time of drug administration, experimental urine samples (10-min consecutive periods) were taken for 80 min.
One hour prior to the start of each experiment a food pellet (standard rodent chow) was placed within access to the rat though a hole in the rat holder. The number and time of feeding responses (i.e., times in which the rat began to eat the food pellet) was recorded before, and after drug administration. If a positive feeding response was observed, the pellet was removed from the restrainer to prevent feeding-induced alterations in heart rate and/or mean arterial pressure. At 10-min intervals, the food pellet was presented to the rat to determine the duration of the feeding response.

mouse vas deferens = experiment: Mouse vas deferens assay: inhibition of electrically-induced contraction; conditions: cumulative addition; data not shown
Description: The compounds of the present invention are pharmacologically active, e.g. as nociceptin agonists or partial agonists, and a useful method of showing activity is described by Hughes J., Kosterlitz H. W., Leslie F. M.: Effect of morphine on adrenergic transmission in the mouse vas deferens. Assessment of agonist and antagonist potencies of narcotic analgesics^[4]. The isolated electrically stimulated mouse vas deferens preparation has been widely used to evaluate the functional pharmacological actions of opioid agonists and antagonists in vitro^[5].
(§1) The vas deferens from male NMRI albino mice weighing 30-40 g were placed in a SCHULER organ bath Type 809, Hugo Sachs Elektronik, Germany, and perfused with a 37° C., modified Krebs solution (NaCl 6,9 g/L, KCl 0.35 g/L, KH2PO4 0.16 g/L, NaHCO3 2.1 g/L, Glucose H2O 2.0 g/L, CaCl2 2.52 mL/L). The solution was gassed with carbogen (95% O2 and 5% CO2) throughout the experiment. The tissue was electrically stimulated through two silver electrodes directly in the organ bath using a HSE Stimulator I Type 215. Stimulation of the tissue was performed by applying a supramaximal voltage (15 Volts) in trains of 10 square pulses every 60 s, each of 1 ms duration with a frequency of […]. Concentration-response curves were performed by adding test substances that relax mouse vas deferens smooth muscles cumulatively to the organ baths. The test substances used in the assay were nociceptin in an isotonic saline solution, Compound 1 (as the trifluoroacetate in an isotonic saline solution), Compound 2 (as the trifluoroacetate in an isotonic saline solution), and the hexapeptide Ac-RYYRWK-NH2 (SEQ ID NO: 1) (as the trifluoroacetate in an isotonic saline solution).

[2] = In vitro stability in heparinised human plasma; format: in vitro ADME
Description: In addition, the degradation of Compound 1 of the invention has been studied in heparinised human plama.
The stability of peptides is analysed in human plasma. The peptides are incubated at 37° C. in plasma and samples taken at approx. 8 regular intervals between t=0 and t=390 min for Compound 1 and nociceptin-NH2, and at 9 intervals between t=0 and t=32 min for Compound CE1 are analysed by HPLC. […] This is done by subsequent injections of the drug, plasma, and a co-injection with the drug and the plasma, followed by optimisation of the LC method parameters until a satisfactory separation is obtained. Three parallel experiments are performed for each plasma type. 100 μl of peptide is mixed with 900 μl plasma at t=0 and incubated at 37° C. (drug-plasma mixture conc. 0.1 mg/ml). Samples of 100 μl of the drug-plasma mixture are removed at appropriate intervals and the degradation stopped by precipitation of the sample with 10 μl MeCN:TFA 50:50 v/v. A control plasma sample without the drug treated in the same manner is also taken. The plasma samples are centrifuged for 15 min. at 12,000 rpm (Eppendorf centrifuge) at ambient temperature. The resulting supernatant solution is transferred to 300 μl HP autosamler vials and analyzed by HPLC. HPLC analysis are performed as follows:
Ac-RYYRWK-NH2 (SEQ ID NO: 1) and Compound 1
The samples are analysed in the following order: blank, the peptide at 0.1 mg/mL, the plasma without the peptide, the three parallel samples for t=0, the three parallel samples for t=5 min. the three parallel samples for t=60 min. etc. And finally the three parallel samples for t=0 are repeated to make sure that there have been no degradation or other failure during the analyses. The sample concentrations (peak height in mAU) are plotted vs. time and fitted to a function describing a mono exponential decay (Excel). The half-lives of the peptides in plasma are presented in Table 7 as mean (n=3)±standard deviation.

[3] = In vitro stability in heparin stabilised mouse plasma; format: in vitro ADME; conditions: heparinised mouse plasma, 37° C., read-out: half-life t½ of degradation
Description: Degradation of peptides is almost exclusively seen in the presence of enzymes, e.g. in the bloodstream. An important feature of a putative drug is whether it is quickly degraded in vivo or whether it is able to conduct its effects over a longer period of time. To be able to examine the stability of the peptide conjugates of the present invention degradation was tested in heparin stabilised mouse plasma (obtained from Harlan Seralab, UK).
The stability studies were run in triplicate. 100 μL of a 1 mg/mL solution of the test compound (peptide conjugate) was added to an Eppendorf tube, containing 900 μL plasma, incubated at 37° C. Immediately after addition, a sample of 100 μL was removed and added to an Eppendorf tube, containing 10 μL of extraction solution (50% TFA (trifluoroacetic acid) in MeCN, v/v). This sample constitutes t=0. […] The samples are centrifuged at 20,000×g, and the supernatant was transferred to vials and analysed by high-performance liquid chromatography (HPLC).
The analysis was performed on a HP1100 HPLC with a quaternary pump. The column used was a Vydac 201SP5215, and the apparatus comprises an autosampler, a column oven, a variable UV detector and a fluorescence detector. […] These values were transferred to Microsoft Excel, where half-lives (t½) and rate constant (kobs) for Ac-RYYRWK-NH2 (SEQ ID NO: 1) and Compound 1 were determined by fitting to the equation.

[4] = tested on: nociceptin-induced smooth muscle relaxation in mouse vas deferens; experiment: Mouse vas deferens assay: antagonism of nociceptin-induced relaxation (Schild pA2); conditions: Schild equation; antagonism of nociceptin-induced relaxation; n = 4
Description: as §1
The effects of Ac-RYYRWK-NH2 (SEQ ID NO: 1) and Compound 1 on nociceptin-induced relaxation in the mouse vas deferens assay were also tested. […] Using the Schild equation ^[7], the pA2 values which indicates affinity of a compound as an antagonist were calculated.

human ORL1 receptor [5] = molecular target: T1, human ORL1 receptor (human, UniProt P41146 1-370); experiment: cell-based or functional assay
human ORL1 receptor [6] = molecular target: T1, human ORL1 receptor; experiment: binding to hORL1 receptor expressed in CHO cells, one experiment
human ORL1 receptor [7] = molecular target: T1, human ORL1 receptor; experiment: cell-based or functional assay; remark: listed apart in the source
human ORL1 receptor [8] = molecular target: T1, human ORL1 receptor; experiment: cell-based or functional assay; remark: listed apart in the source
human ORL1 receptor [9] = molecular target: T1, human ORL1 receptor; experiment: displacement of [3H]-labeled nociceptin, HEK293 cells transfected with the human ORL1 receptor

T1 sequence (P41146 whole entry): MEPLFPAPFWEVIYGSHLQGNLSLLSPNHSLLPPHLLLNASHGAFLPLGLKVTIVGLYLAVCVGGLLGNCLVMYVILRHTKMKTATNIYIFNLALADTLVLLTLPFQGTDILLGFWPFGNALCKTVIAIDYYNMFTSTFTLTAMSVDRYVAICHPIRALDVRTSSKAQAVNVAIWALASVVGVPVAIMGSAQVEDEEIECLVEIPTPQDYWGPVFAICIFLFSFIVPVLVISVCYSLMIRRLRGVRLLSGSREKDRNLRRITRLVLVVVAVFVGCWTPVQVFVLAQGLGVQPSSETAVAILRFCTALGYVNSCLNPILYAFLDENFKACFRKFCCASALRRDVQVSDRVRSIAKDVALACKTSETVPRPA
Sequence of hORL1 receptor (P41146 whole entry): as above

CC(=O)N[C@H](CCCCN)C(=O)N[C@H](CCCCN)C(=O)N[C@H](CCCCN)C(=O)N[C@H](CCCCN)C(=O)N[C@H](CCCCN)C(=O)N[C@H](CCCCN)C(=O)N[C@H](CCCCN)C(=O)N[C@H](Cc1c[nH]c2ccccc12)C(=O)N[C@H](CCCNC(=N)N)C(=O)N[C@H](Cc1ccc(O)cc1)C(=O)N[C@H](Cc1ccc(O)cc1)C(=O)N[C@H](CCCNC(=N)N)C(N)=O [Compound 7, Ac-KKKKKKKWRYYR-NH2 (all D)] (HELM PEPTIDE1{[ac].[dK].[dK].[dK].[dK].[dK].[dK].[dK].[dW].[dR].[dY].[dY].[dR].[am]}$$$$V2.0)
IC50 (hORL1 receptor): > 100 nM

CC(C)C[C@H](NC(=O)[C@H](CCCCN)NC(=O)[C@H](CCCN=C(N)N)NC(=O)[C@H](C)NC(=O)[C@H](CO)NC(=O)[C@H](CCCCN)NC(=O)[C@H](CCCN=C(N)N)NC(=O)[C@H](C)NC(=O)CNC(=O)[C@@H](NC(=O)[C@H](Cc1ccccc1)NC(=O)CNC(=O)CNC(=O)[C@@H](N)Cc1ccccc1)[C@@H](C)O)C(=O)N[C@@H](C)C(=O)N[C@@H](CC(N)=O)C(=O)N[C@@H](CCC(N)=O)C(=O)O [nociceptin, reference compound]
heart rate, arterial pressure and RSNA ([1]; i.v. bolus 30 and 100 nmol/kg, data not shown): rapid bradycardia, a hypotensive response and initial RSNA suppression
MAP response ([1]; i.v. infusion 11 nmol/kg/min, FIG. 2): significantly decreases MAP

Ac-KKKKKKRYYRWK-NH2 [Compound 2]
potency order for inhibition of electrically-induced contraction of the mouse vas deferens (mouse vas deferens): nociceptin>Compound 1=Compound 2>>Ac-RYYRWK-NH2

Ac-RYYRWK-NH2 [Compound CE1, Ac-Arg-Tyr-Tyr-Arg-Trp-Lys-NH2, reference compound]
half-life at 0.1 mg/ml ([2]; 37° C., mean (n=3) +/− deviation, read-out: T1/2 in min (degradation in human heparinised plasma)): 50.7 min
half-life at 0.1 mg/ml ([2]; read-out: half life in plasma): < 60 min
half-life at 0.1 mg/mL [3]: 2 to 5 min
pA2 value [4]: 7.8 (n = 4)
potency order for inhibition of electrically-induced contraction of the mouse vas deferens (mouse vas deferens): nociceptin>Compound 1=Compound 2>>Ac-RYYRWK-NH2

Compound 8 Ac-D-Arg-D-Tyr-D-Tyr-D-Arg-D-Trp-D-Lys-D-Lys-D-Lys-D-Lys-D-Lys-D-Lys-D-Lys-NH2 (peptide)
Efficacy EC50 (nM), inhibition of forskolin-induced cAMP formation (human ORL1 receptor [5]): 59 nM

B1: Compound 6 Ac-Lys-Lys-Lys-Lys-Lys-Lys-Lys-Trp-Arg-Tyr-Tyr-Arg-NH2 (peptide)
peptide: Ac-KKKKKKKWRYYR-NH2
IC50 (human ORL1 receptor [6]): 115 nM
Efficacy EC50 (nM), inhibition of forskolin-induced cAMP formation (human ORL1 receptor [7]): 135 nM

B2: Compound 4 Ac-Arg-Tyr-Asn-Arg-Trp-Lys-Lys-Lys-Lys-Lys-Lys-Lys-NH2 (peptide)
peptide: Ac-RYNRWKKKKKKK-NH2
Efficacy EC50 (nM), inhibition of forskolin-induced cAMP formation (human ORL1 receptor [7]): 91 nM

B3: Compound 12 Ac-Arg-Tyr-Tyr-Arg-Trp-Lys-Lys-Lys-Lys-Lys-Lys-NH2 (peptide)
peptide: Ac-RYYRWKKKKKK-NH2
IC50 (human ORL1 receptor [6]): 0.15 nM

B4: Compound 3 H-Asn-Glu-Glu-Glu-Glu-Glu-Arg-Tyr-Tyr-Arg-Trp-Lys-Lys-Lys-Lys-Lys-Lys-Lys-NH2 (peptide)
peptide: H-NEEEEERYYRWKKKKKKK-NH2
IC50 (human ORL1 receptor [6]): 235 nM
Efficacy EC50 (nM), inhibition of forskolin-induced cAMP formation (human ORL1 receptor [7]): 83 nM

B5: Compound CE1 Ac-Arg-Tyr-Tyr-Arg-Trp-Lys-NH2 (peptide)
peptide: Ac-RYYRWK-NH2
notes: Unconjugated comparison hexapeptide; also called Ac-RYYRWK-NH2
IC50 (human ORL1 receptor [6]): 0.31 nM
Efficacy EC50 (nM), inhibition of forskolin-induced cAMP formation (human ORL1 receptor [7]): 0.41 nM

B6: Compound 1 Ac-Arg-Tyr-Tyr-Arg-Trp-Lys-Lys-Lys-Lys-Lys-Lys-Lys-NH2 (peptide)
peptide: Ac-RYYRWKKKKKKK-NH2
modifications: also: trifluoroacetate salt
notes: Synthetic peptide conjugate; the primary product is the trifluoroacetate salt; also called Compound I
inhibition of forskoline-induced formation of cAMP, EC50 (human ORL1 receptor [8]): 0.54 nM
inhibition of forskoline-induced formation of cAMP, relative maximum relative to nociceptin (human ORL1 receptor [8]): 92%
Ki (human ORL1 receptor [9]): 0.26 nM
IC50 (human ORL1 receptor [6]): 0.32 nM
Efficacy EC50 (nM), inhibition of forskolin-induced cAMP formation (human ORL1 receptor [7]): 0.58 nM

B7: Compound 11 Ac-Arg-Tyr-Tyr-Arg-Trp-Lys-Ala-Lys-Lys-Lys-Lys-Lys-NH2 (peptide)
peptide: Ac-RYYRWKAKKKKK-NH2
IC50 (human ORL1 receptor [6]): 0.27 nM

B8: Compound 9 Ac-Lys-Tyr-Tyr-Arg-Trp-Lys-Lys-Lys-Lys-Lys-Lys-Lys-NH2 (peptide)
peptide: Ac-KYYRWKKKKKKK-NH2
IC50 (human ORL1 receptor [6]): 3.7 nM
Efficacy EC50 (nM), inhibition of forskolin-induced cAMP formation (human ORL1 receptor [7]): 0.035 nM

B9: Compound 10 Ac-Arg-Tyr-Tyr-Arg-Ile-Lys-Lys-Lys-Lys-Lys-Lys-Lys-NH2 (peptide)
peptide: Ac-RYYRIKKKKKKK-NH2
IC50 (human ORL1 receptor [6]): 0.51 nM
